T1: mouse Ang2 (construct not stated) (mouse, UniProt O35608 19-496, limits assumed)
T1 construct: also called mAng2
T1 sequence (looked up): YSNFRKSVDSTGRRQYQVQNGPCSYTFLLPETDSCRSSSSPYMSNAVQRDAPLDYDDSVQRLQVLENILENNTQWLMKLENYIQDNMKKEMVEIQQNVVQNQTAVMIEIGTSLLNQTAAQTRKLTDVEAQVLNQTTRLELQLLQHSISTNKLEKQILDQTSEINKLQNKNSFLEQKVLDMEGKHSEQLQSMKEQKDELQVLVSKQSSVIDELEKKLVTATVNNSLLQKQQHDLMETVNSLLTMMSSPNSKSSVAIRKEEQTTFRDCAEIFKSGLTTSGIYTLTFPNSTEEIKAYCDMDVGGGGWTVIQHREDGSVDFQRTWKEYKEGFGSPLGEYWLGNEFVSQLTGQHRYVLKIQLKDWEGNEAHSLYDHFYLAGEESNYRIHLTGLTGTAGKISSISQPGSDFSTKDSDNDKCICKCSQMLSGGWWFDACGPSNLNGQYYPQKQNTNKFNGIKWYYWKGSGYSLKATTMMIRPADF

T2: biotinylated human Ang2 protein (human, UniProt O15123 19-496, limits assumed, biotinylated (sites not given))
T2 construct: also called hAng2
T2 sequence (looked up): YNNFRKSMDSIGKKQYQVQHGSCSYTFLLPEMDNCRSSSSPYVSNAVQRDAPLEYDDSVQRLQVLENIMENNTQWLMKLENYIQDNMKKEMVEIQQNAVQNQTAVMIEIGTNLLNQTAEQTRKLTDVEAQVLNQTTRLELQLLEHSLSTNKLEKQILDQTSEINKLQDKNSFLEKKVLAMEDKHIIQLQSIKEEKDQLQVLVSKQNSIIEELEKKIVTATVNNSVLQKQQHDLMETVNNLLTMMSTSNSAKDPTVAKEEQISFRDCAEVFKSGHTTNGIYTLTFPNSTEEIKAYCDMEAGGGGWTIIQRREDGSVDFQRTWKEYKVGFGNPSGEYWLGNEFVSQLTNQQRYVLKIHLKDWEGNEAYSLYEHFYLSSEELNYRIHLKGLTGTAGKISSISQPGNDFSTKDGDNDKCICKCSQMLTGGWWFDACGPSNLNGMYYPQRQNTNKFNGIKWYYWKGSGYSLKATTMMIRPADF

T3: His-tagged human Ang1 (R&D systems, 923-AN/CF) (human, UniProt Q15389 20-498, limits assumed)
T3 construct: Bought protein; also called hAng1-his; not shown: His tag
T3 sequence (looked up): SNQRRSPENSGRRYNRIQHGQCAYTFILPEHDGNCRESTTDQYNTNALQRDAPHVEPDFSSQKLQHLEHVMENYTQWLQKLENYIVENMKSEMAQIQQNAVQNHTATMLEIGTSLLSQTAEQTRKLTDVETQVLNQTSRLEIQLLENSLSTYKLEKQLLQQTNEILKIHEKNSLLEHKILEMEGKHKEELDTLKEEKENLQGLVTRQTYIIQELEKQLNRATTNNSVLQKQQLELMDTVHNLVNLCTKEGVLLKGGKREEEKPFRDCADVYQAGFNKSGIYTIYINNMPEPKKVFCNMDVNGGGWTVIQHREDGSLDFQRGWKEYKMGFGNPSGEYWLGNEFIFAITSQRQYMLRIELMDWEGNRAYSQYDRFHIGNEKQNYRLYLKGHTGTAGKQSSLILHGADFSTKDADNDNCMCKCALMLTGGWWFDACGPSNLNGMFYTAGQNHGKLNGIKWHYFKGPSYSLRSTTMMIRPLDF

B1: No. 3 anti-Ang2 antibody (IgG) (antibody, V domains shown)
VH: QMQLVQSGGGLVQPGRSLKLSCAASGFSFDDYAMHWVRQAPGKGLEWVATIKDDGSQTYYVDSVKGRFTISRDNAKSSLFLQMNSLRAEDTAVYYCTTEGLMNGLHFDMWGQGTMVTVSS
VL: LVLTQPPSVSGAPGQGVTISCTGSSSNIGAGYDVHWYQQFPGTAPKLLISGNNNRPSGLPDRFSGSKSGTSASLAITGLQAEDEADYYCQSYDSRLGVVFGGGTKLTVLG
notes: IgG form: VH cloned into Invivogen pfusess-hchg1 (heavy chain constant region), VL into Invivogen pfuse2ss-hclk (light chain constant region); Expressed in Expi293F, purified on Protein A; also called 1D10
B2: No. 4 anti-Ang2 antibody (IgG) (antibody, V domains shown)
VH: QVQLVESGAEVKRPGESLRISCKTSGYSFTSYWIHWVRQMPGKELEWMGSIYPGNSDTRYSPSFQGHVTISADSSSSTAYLQWSSLKASDTAMYYCTTEGLMNGLHFDMWGQGTMVTVSS
VL: DIVMTQTPLSLPVTPGEPASISCRSSQSLLHSLGDNYLDWYLQKPGQSPQLLIYLGSKRAAGVPDRFSGSGSGTDFTLKISRVEAEDVGVYYCMQSLQTPPYTFGQGTKLEIKR
notes: IgG form: VH cloned into Invivogen pfusess-hchg1, VL into Invivogen pfuse2ss-hclk; also called 2D8
B3: No. 8 anti-Ang2 antibody (IgG) (antibody, V domains shown)
VH: QVQLVESGGGLVKPGGSLRLSCAASGFTFSSYSMNWVRQAPGKGLEWVSSISASDGATYYADSVRGRFTISRDNSRSTLYLQMNSLRAEDTAVYYCAKILAGYSGPMGGMDVWGQGTTVTVSS
VL: DIQMTQSPSSLSASVGDRVTITCRASRDISNYLAWYQQKPGKAPKSLIYGASNLQSGVSSQFSGSGSGTDFTLTINSLQPEDSATYYCQQYYSYPLTFGGGTKVDIKR
notes: IgG form: VH cloned into Invivogen pfusess-hchg1, VL into Invivogen pfuse2ss-hclk; also called 3A10
B4: No. 41 anti-Ang2 antibody (IgG) (antibody, V domains shown)
VH: QVQLVESGGGLVQPGGSLRLSCEASGFAFGRYEMNWVRQAPGKGLEWIAYIDTGGGAKVYADSVKGRFTISRDDSKNSLYLQMNSLRAEDTAVYYCTTEGLMNGLHFDMWGQGTMITVSS
VL: DIQMTQSPSTLSASVGDRVAITCRASQAISTWLAWYQQKPGKAPKLLIYTASTLESGVPSRFSGSGSGTDFTLTINSLQPDDFATYYCQQLNSYPYTFGGGTKVEIKR
notes: IgG form: VH cloned into Invivogen pfusess-hchg1, VL into Invivogen pfuse2ss-hclk; also called 2B2
B5: No. 46 anti-Ang2 antibody (IgG) (antibody, V domains shown)
VH: QVQLVESGGGLVQPGRSLRLSCAASGFTFDDCAMHWVRQAPGKGLEWVSGISGNSKNVAYADSVKGRFSISRDDAKNSLYLQMNSLRAEDTAVYYCARDPAYSQFDYWGQGTLITVSS
VL: QSALTQPPSLSATPGQRVTISCSGSSSNVGGYPVNWYQQVPGAAPKLLMYTDYKRPSGVPDRFFGSKSGTSASLAISGLQSEDEADYYCATWDDNLNGYVFGTGTKVTVLG
notes: IgG form: VH cloned into Invivogen pfusess-hchg1, VL into Invivogen pfuse2ss-hclk; also called 3C6

Experiments:
[1] = target: T1, mouse Ang2 (construct not stated); test: competition ELISA: antibody preincubated with mAng2, binding to coated mouse Tie2-Fc
[2] = target: T2, biotinylated human Ang2 protein; test: competition ELISA: antibody preincubated with biotinylated hAng2, binding to coated human Tie2-Fc
Procedure: (§1) 1 μg/ml (100 μl per well) of a human Ti32-Fc (R&D Systems, 313-TI) or mouse Tie2-Fc (R&D Systems, 762-T2-100) solution, an integrin α3/β1 solution (R&D systems, 2840-A3-050), or an integrin α5/β1 solution (R&D systems, 3230-A5-050) was added to a 96-well immunoplate (Nunc, US) and then allowed to stand overnight at 4° C. for adsorption. The next day, the plate was washed four times with PBS containing 0.05% Tween-20 (hereinafter, referred to as PBST), and 200 μl of a 2% BSA/PBST solution was added to each well and then allowed to stand at room temperature for 1 hour to perform blocking. Anti-Ang2 candidate antibodies were serially diluted 4-fold at a maximum of 1000 nM, and biotinylated human Ang2 protein was made to a final concentration of 100 ng/mL or 625 ng/mL, followed by previous binding at room temperature for 1 hour. […] The plate was washed three times with PBST, 100 μl of HRP-conjugated streptavidin (R&D Systems, DY998) diluted to 1:200 was added to allow a reaction to occur at room temperature for 1 hour, thereby inducing binding, and the plate was washed four times with PBST, followed by color development using 100 μl of a TMB substrate reagent. The color development reaction was stopped by adding 50 μl of 2N H₂SO₄, and a Sunrise microplate reader (TECAN, CH) was used to measure specific absorbance OD₄₅₀ (FIGS. 4 and 5).

[3] = target: T2, biotinylated human Ang2 protein; test: competition ELISA: antibody preincubated with biotinylated hAng2, binding to coated integrin α5/β1
Procedure: as §1

[4] = target: T3, His-tagged human Ang1 (R&D systems, …); test: binding ELISA, His-tagged human Ang1 coated at 1 µg/ml, detection with HRP anti-human IgG(kappa) [panel 'human Ang1 binding ELISA']
Procedure: 1 μg/ml (100 μl per well) of a His-tagged human (R&D systems, 623-AN/CF) or mouse (sino, 50298-M07H) Ang2 solution or a His-tagged human (R&D systems, 923-AN/CF) or mouse (sino, 50300-M07H) Ang1 solution was added to a 96-well immunoplate (Nunc, US) and allowed to stand overnight at 4° C. for adsorption. The next day, the solution was washed three times with PBS containing 0.05% Tween-20 (hereinafter, referred to as PBST), and 200 μl of a 2% BSA/PBST solution was added to each well and then allowed to stand at room temperature for 2 hours to perform blocking. After washing three times with PBST, 100 μl of each test antibody solution was added to each well according to concentration to cause binding at room temperature for 1 hour, and then washing was performed three times with PBST, 100 μl of HRP-conjugated goat anti-human IgG(kappa) (bethyl lab #A80-115P) diluted to 1:2000 was added and allowed to react at room temperature for 1 hour, thereby inducing binding, and after washing three times with PBST, color development was performed using 100 μl of a TMB substrate reagent. The color development reaction was stopped by adding 50 μl of 2N H₂SO₄, and a Sunrise microplate reader (TECAN, CH) was used to measure specific absorbance OD₄₅₀₋₆₃₀ (FIG. 3).

Binder	IC50 [1] [nM]	IC50 [2] [nM]	IC50 [3] [nM]	binding result [4]
B1	5.02	0.491	1.53	no binding (tested: 2 mg/ml (unit as read in the legend))
B2	4.54	0.462	1.57	no binding (tested: 2 mg/ml (unit as read in the legend))
B3	4.83	0.495	1.89	no binding (tested: 2 mg/ml (unit as read in the legend))
B4	3.98	0.475	1.49	no binding (tested: 2 mg/ml (unit as read in the legend))
B5	5.25	0.337	1.9	no binding (tested: 2 mg/ml (unit as read in the legend))
